Assay results as given in article PMC11417371, “ENL reads histone β-hydroxybutyrylation to modulate gene transcription” (Nucleic Acids Research, 2024).

T1: AF9 (UniProt P42568 1-568)
T1 construct: AF9 (MLLT3), a YEATS domain-containing protein
T1 sequence (looked up): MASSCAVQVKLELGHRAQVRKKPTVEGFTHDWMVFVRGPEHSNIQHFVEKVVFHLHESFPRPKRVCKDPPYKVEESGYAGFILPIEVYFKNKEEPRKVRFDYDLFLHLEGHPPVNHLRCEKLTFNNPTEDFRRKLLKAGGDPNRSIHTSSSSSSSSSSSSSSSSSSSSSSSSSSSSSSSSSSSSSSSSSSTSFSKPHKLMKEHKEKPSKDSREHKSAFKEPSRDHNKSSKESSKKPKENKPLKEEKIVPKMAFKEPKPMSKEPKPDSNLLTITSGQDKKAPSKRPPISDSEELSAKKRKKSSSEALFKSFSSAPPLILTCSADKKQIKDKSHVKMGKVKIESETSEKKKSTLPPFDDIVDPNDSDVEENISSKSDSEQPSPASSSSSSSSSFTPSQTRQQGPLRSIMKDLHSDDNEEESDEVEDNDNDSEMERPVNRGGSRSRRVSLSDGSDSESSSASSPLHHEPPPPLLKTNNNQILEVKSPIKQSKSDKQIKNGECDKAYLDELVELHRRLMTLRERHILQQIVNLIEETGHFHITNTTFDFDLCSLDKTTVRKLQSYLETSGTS


Experiments:
[1] = molecular target: Probe H3K9bhb (Kbhb-installed histone H3 peptide on gold nanoparticles with photo-cross-linker-linked PEG); experiment: affinity purification with mass spectrometry; photoaffinity enrichment with probes H3K9bhb and H3K9, read out by parallel reaction monitoring (PRM) mass spectrometry
AF9 = molecular target: T1, AF9; experiment: ITC; MicroCal PEAQ ITC, 15°C; protein at 100 μM dropped into the 1000 μM peptide, 19 drops; one set of binding sites model; conditions: both partners purified
GAS41 = molecular target: T2, GAS41 (UniProt O95619 1-227); experiment: as above; conditions: both partners purified
T2 construct: GAS41 (YEATS4), a YEATS domain-containing protein
T2 sequence (O95619 whole entry, the tested form may be a part): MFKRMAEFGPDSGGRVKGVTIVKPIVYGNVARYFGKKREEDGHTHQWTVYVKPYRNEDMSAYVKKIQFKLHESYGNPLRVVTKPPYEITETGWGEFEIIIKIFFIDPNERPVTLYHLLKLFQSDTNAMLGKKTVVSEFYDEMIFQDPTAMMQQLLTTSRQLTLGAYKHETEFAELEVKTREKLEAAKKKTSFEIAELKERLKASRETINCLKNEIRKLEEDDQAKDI

Row | fold enrichment over probe H3K9 [1] [fold] | Kd (AF9) [µM] | Kd (GAS41) [µM] | Binder
1 | 3.9 | – | – | ENL (endogenous) (natural protein) MDNQCTVQVRLELGHRAQLRKKPTTEGFTHDWMVFVRGPEQCDIQHFVEKVVFWLHDSFPKPRRVCKEPPYKVEESGYAGFIMPIEVHFKNKEEPRKVCFTYDLFLNLEGNPPVNHLRCEKLTFNNPTTEFRYKLLRAGGVMVMPEGADTVSRPSPDYPMLPTIPLSAFSDPKKTKPSHGSKDANKESSKTSKPHKVTKEHRERPRKDSESKSSSKELEREQAKSSKDTSRKLGEGRLPKEEKAPPPKAAFKEPKMALKETKLESTSPKGGPPPPPPPPPRASSKRPATADSPKPSAKKQKKSSSKGSRSAPGTSPRTSSSSSFSDKKPAKDKSSTRGEKVKAESEPREAKKALEVEESNSEDEASFKSESAQSSPSNSSSSSDSSSDSDFEPSQNHSQGPLRSMVEDLQSEESDEDDSSSGEEAAGKTNPGRDSRLSFSDSESDNSADSSLPSREPPPPQKPPPPNSKVSGRRSPESCSKPEKILKKGTYDKAYTDELVELHRRLMALRERNVLQQIVNLIEETGHFNVTNTTFDFDLFSLDETTVRKLQSCLEAVAT
2 | – | 11 | 6.7 | ARTKQTARKSTGGKAPR (peptide, UniProt P68431 2-18, looked up, β-hydroxybutyryl-lysine at K9, histone H3, residues 1-17; The text calls the ITC peptides 'histone H3K14 (1–17) peptides', the legend 'H31-17 peptides'; also called H3K9bhb peptide; source: synthetic peptide (Beijing SciLight Biotechnology, HPLC purified)) [β-hydroxybutyryl histone H3 1-17 peptide (H3K9bhb)]
